Source: patent publication US20110086767A1, “MUTANTS OF GLYCOSIDE HYDROLASES AND USES THEREOF FOR SYNTHESIZING COMPLEX OLIGOSACCHARIDES AND DISACCHARIDE INTERMEDIATES” (Institut Pasteur, priority 2008, published 2011)
Entries after “also recorded” stand apart in the source; their conditions may differ.

What was measured:
Assay type in all cases: biochemical
[1] = Enzymatic glucosylation of D-GlcpNAc derivatives: β-D-GlcpNAc-OAll; conditions: sucrose:acceptor 1:1 (146 mM); estimated according to peak areas
Experimental: (§1) The mutant F290K and the ASNPwt were tested on other D-GlcNAc derivatives (α-D-GlcpNAc-OMe, β-D-GlcpNAc-OMe, β-D-GlcpNAc-Oallyl and D-GlcNHTCA) used as potential acceptors. The enzymatic reaction was carried out using sucrose as donor and D-GlcNAc derivative as acceptor in a 1:1 ratio (146 mM)
(§2) Efficiency of the glucosylation reaction was evaluated by HPLC analysis of the acceptor reaction product synthesized a Biorad HPLC Carbohydrate Analysis column (HPX-87K column (300×7.8 mm))
(§3) Percentages of glucosylation rates were estimated according to peak areas as no reference was available.

[2] = Enzymatic glucosylation of D-GlcpNAc derivatives: D-GlcNHTCA; conditions: sucrose:acceptor 1:1 (146 mM); estimated according to peak areas
Experimental: as §1, §2, §3

[3] = Kinetic parameters towards sucrose donor
Experimental: Enzyme assays were carried out in a total volume of 2 mL containing pure enzyme (0.073 mg, 0.153 mg and 0.092 mg when using A289P-F290C, A289P-F2901 and A289P-F290L, respectively).
Kinetic studies of AS variants were performed in the presence of sucrose (0-500 mM). At regular time intervals (2-5 min), aliquots (200 μL) were removed, heated (95° C., 2 min) and centrifuged (18000 g, 5 min) All the samples were filtered on a 0.22 μm membrane and analyzed using HPLC material previously described. The initial rate of sucrose consumed, corresponding to the initial rate of fructose released, was expressed in mole of fructose released per minute and per gram of enzyme. The kinetic parameters kcat and Km were calculated using Eadie-Hofstee plot.

B1: F290K: single mutant F290K of N. polysaccharea amylosucrase 1G5A (protein)
chain: SPNSQYLKTRILDIYTPEQRAGIEKSEDWRQFSRRMDTHFPKLMNELDSVYGNNEALLPMLEMLLAQAWQSYSQRNSSLKDIDIARENNPDWILSNKQVGGVCYVDLFAGDLKGLKDKIPYFQELGLTYLHLMPLFKCPEGKSDGGYAVSSYRDVNPALGTIGDLREVIAALHEAGISAVVDFIFNHTSNEHEWAQRCAAGDPLFDNFYYIFPDRRMPDQYDRTLREIFPDQHPGGFSQLEDGRWVWTTFNSFQWDLNYSNPWVFRAMAGEMLFLANLGVDILRMDAVAKIWKQMGTSCENLPQAHALIRAFNAVMRIAAPAVFFKSEAIVHPDQVVQYIGQDECQIGYNPLQMALLWNTLATREVNLLHQALTYRHNLPEHTAWVNYVRSHDDIGWTFADEDAAYLGISGYDHRQFLNRFFVNRFDGSFARGVPFQYNPSTGDCRVSGTAAALVGLAQDDPHAVDRIKLLYSIALSTGGLPLIYLGDEVGTLNDDDWSQDSNKSDDSRWAHRPRYNEALYAQRNDPSTAAGQIYQDLRHMIAVRQSNPRFDGGRLVTFNTNNKHIIGYIRNNALLAFGNFSEYPQTVTAHTLQAMPFKAHDLIGGKTVSLNQDLTLQPYQVMWLEIA
glucosylation of acceptor β-D-GlcpNAc-OAll [1]: > 95%
glucosylation of acceptor D-GlcNHTCA [2]: > 95%
V250mM (initial rate of sucrose consumption) ([3]; 250 mM sucrose): 110 µmol/min/g
behaviour (at high concentration) ([3]; sucrose donor alone): no kinetic saturation; also recorded: linear
